Data: IntAct's records for PubMed 21900546

B1: Neutrophil cytosol factor 2 (Homo sapiens), P19878 (parent)
chain: MSLVEAISLWNEGVLAADKKDWKGALDAFSAVQDPHSRICFNIGCMYTILKNMTEAEKAFTRSINRDKHLAVAYFQRGMLYYQTEKYDLAIKDLKEALIQLRGNQLIDYKILGLQFKLFACEVLYNIAFMYAKKEEWKKAEEQLALATSMKSEPRHSKIDKAMECVWKQKLYEPVVIPVGKLFRPNERQVAQLAKKDYLGKATVVASVVDQDSFSGFAPLQPQAAEPPPRPKTPEIFRALEGEAHRVLFGFVPETKEELQVMPGNIVFVLKKGNDNWATVMFNGQKGLVPCNYLEPVELRIHPQQQPQEESSPQSDIPAPPSSKAPGRPQLSPGQKQKEEPKEVKLSVPMPYTLKVHYKYTVVMKTQPGLPYSQVRDMVSKKLELRLEHTKLSYRPRDSNELVPLSEDSMKDAWGQVKNYCLTLWCENTVGDQGFPDEPKESEKADANNQTTEPQLKKGSQVEALFSYEATQPEDLEFQEGDIILVLSKVNEEWLEGECKGKVGIFPKVFVEDCATTDLESTRREV

Variants of: B1
Settings: with rac2_human RAC2, P15153

Variant | effect of a mutation on the interaction
MSLVEAISLWNEGVLAADKKDWKGALDAFSAVQDPHSQICFNIGCMYTILKNMTEAEKAFTRSINRDKHLAVAYFQRGMLYYQTEKYDLAIKDLKEALIQLRGNQLIDYKILGLQFKLFACEVLYNIAFMYAKKEEWKKAEEQLALATSMKSEPRHSKIDKAMECVWKQKLYEPVVIPVGKLFRPNERQVAQLAKKDYLGKATVVASVVDQDSFSGFAPLQPQAAEPPPRPKTPEIFRALEGEAHRVLFGFVPETKEELQVMPGNIVFVLKKGNDNWATVMFNGQKGLVPCNYLEPVELRIHPQQQPQEESSPQSDIPAPPSSKAPGRPQLSPGQKQKEEPKEVKLSVPMPYTLKVHYKYTVVMKTQPGLPYSQVRDMVSKKLELRLEHTKLSYRPRDSNELVPLSEDSMKDAWGQVKNYCLTLWCENTVGDQGFPDEPKESEKADANNQTTEPQLKKGSQVEALFSYEATQPEDLEFQEGDIILVLSKVNEEWLEGECKGKVGIFPKVFVEDCATTDLESTRREV [R38Q] | decreasing interaction strength
